Experimental data reported in the supplement of paper PMC11316812.
± gives the standard deviation of the averaged measurements.

Key:
MCF7 = test: percentage of EdU-negative (G0-arrested) nuclei per well, 72 h; higher = more G0 arrest; conditions: reference: sequence is the full UniProt precursor, the tested protein was the secreted form or ectodomain
hTERT-HMEC = test: as above; conditions: reference: sequence is the full UniProt precursor, the tested protein was the secreted form or ectodomain
[1] = protein concentration 0.0224225 µM
[2] = protein concentration 0.0243425 µM
[3] = protein concentration 0.028825 µM
[4] = protein concentration 0.224225 µM
[5] = protein concentration 0.243425 µM
[6] = protein concentration 0.28825 µM
[7] = protein concentration 0.0085 µM
[8] = protein concentration 0.0301275 µM
[9] = protein concentration 0.301275 µM
[10] = protein concentration 0.03125 µM
[11] = protein concentration 0.3125 µM
[12] = protein concentration 0.0225 µM
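Note: secreted proteins added to cultured cells, EdU pulse at the end, nuclei found by Hoechst imaging, EdU status from nuclear versus surrounding ring intensity ratio, PBS as neutral control.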

For “MRACISLVLAVLCGLAWAGKIESCASRCNEKFNRDAACQCDRRCLWHGNCCEDYEHLCTEDHKESEPLPQLEEETEEALASNLYSAPTSCQGRCYEAFDKHHQCHCNARCQEFGNCCKDFESLCSDHEVSHSSDAITKEEIQSISEKIYRADTNKAQKEDIVLNSQNCISPSETRNQVDRCPKPLFTYVNEKLFSKPTYAAFINLLNNYQRATGHGEHFSAQELAEQDAFLREIMKTAVMKELYSFLHHQNRYGSEQEFVDDLKNMWFGLYSRGNEEGDSSGFEHVFSGEVKKGKVTGFHNWIRFYLEEKEGLVDYYSHIYDGPWDSYPDVLAMQFNWDGYYKEVGSAFIGSSPEFEFALYSLCFIARPGKVCQLSLGGYPLAVRTYTWDKSTYGNGKKYIATAYIVSST”, the “percentage of EdU-negative” value (MCF7; [1]) was 25.11 ± 0.21%, the “percentage of EdU-negative” value (MCF7; [2]) was 25.2 ± 1.4% and the “percentage of EdU-negative” value (MCF7; [3]) was 24.16 ± 0.045%. For the same sequence, the “percentage of EdU-negative” value (MCF7; [4]) was 28.6 ± 2.5%, the “percentage of EdU-negative” value (MCF7; [5]) was 27.3 ± 0.39% and the “percentage of EdU-negative” value (MCF7; [6]) was 27.382 ± 0.0011%. For the same sequence, the “percentage of EdU-negative” value (hTERT-HMEC; [1]) was 5.37 ± 0.81%, the “percentage of EdU-negative” value (hTERT-HMEC; [2]) was 4.65 ± 0.23% and the “percentage of EdU-negative” value (hTERT-HMEC; [3]) was 5.03 ± 0.15%. For the same sequence, the “percentage of EdU-negative” value (hTERT-HMEC; [4]) was 5.94 ± 0.48%, the “percentage of EdU-negative” value (hTERT-HMEC; [5]) was 8.43 ± 1.2% and the “percentage of EdU-negative” value (hTERT-HMEC; [6]) was 6.74 ± 0.95%.

In the case of “MRALEGPGLSLLCLVLALPALLPVPAVRGVAETPTYPWRDAETGERLVCAQCPPGTFVQRPCRRDSPTTCGPCPPRHYTQFWNYLERCRYCNVLCGEREEEARACHATHNRACRCRTGFFAHAGFCLEHASCPPGAGVIAPGTPSQNTQCQPCPPGTFSASSSSSEQCQPHRNCTALGLALNVPGSSSHDTLCTSCTGFPLSTRVPGAEECERAVIDFVAFQDISIKRLQRLLQALEAPEGWGPTPRAGRAALQLKLRRRLTELLGAQDGALLVRLLQALRVARMPGLERSVRERFLPVH”, the “percentage of EdU-negative” value (MCF7; [7]) is reported as 22.9 ± 1.3%, the “percentage of EdU-negative” value (MCF7; protein concentration 0.085 µM) is reported as 27.9 ± 2.1% and the “percentage of EdU-negative” value (hTERT-HMEC; [7]) is reported as 4.68 ± 0.12%. The “percentage of EdU-negative” value (hTERT-HMEC; protein concentration 0.085 µM) was 8.46 ± 1.8%.

“MRALLLLGFLLVSLESTLSIPPWEAPKEHKYKAEEHTVVLTVTGEPCHFPFQYHRQLYHKCTHKGRPGPQPWCATTPNFDQDQRWGYCLEPKKVKDHCSKHSPCQKGGTCVNMPSGPHCLCPQHLTGNHCQKEKCFEPQLLRFFHKNEIWYRTEQAAVARCQCKGPDAHCQRLASQACRTNPCLHGGRCLEVEGHRLCHCPVGYTGAFCDVDTKASCYDGRGLSYRGLARTTLSGAPCQPWASEATYRNVTAEQARNWGLGGHAFCRNPDNDIRPWCFVLNRDRLSWEYCDLAQCQTPTQAAPPTPVSPRLHVPLMPAQPAPPKPQPTTRTPPQSQTPGALPAKREQPPSLTRNGPLSCGQRLRKSLSSMTRVVGGLVALRGAHPYIAALYWGHSFCAGSLIAPCWVLTAAHCLQDRPAPEDLTVVLGQERRNHSCEPCQTLAVRSYRLHEAFSPVSYQHDLALLRLQEDADGSCALLSPYVQPVCLPSGAARPSETTLCQVAGWGHQFEGAEEYASFLQEAQVPFLSLERCSAPDVHGSSILPGMLCAGFLEGGTDACQGDSGGPLVCEDQAAERRLTLQGIISWGSGCGDRNKPGVYTDVAYYLAWIREHTVS” was tested, and the “percentage of EdU-negative” value (MCF7; protein concentration 0.009 µM) was 27.06 ± 0.031%, the “percentage of EdU-negative” value (MCF7; protein concentration 0.09 µM) was 27.973 ± 0.024% and the “percentage of EdU-negative” value (hTERT-HMEC; protein concentration 0.009 µM) was 5.23 ± 0.56%. For the same sequence, the “percentage of EdU-negative” value (hTERT-HMEC; protein concentration 0.09 µM) was 49.1 ± 0.6%.

“MRALRDRAGLLLCVLLLAALLEAALGLPVKKPRLRGPRPGSLTRLAEVSASPDPRPLKEEEEAPLLPRTHLQAEPHQHGCWTVTEPAAMTPGNATPPRTPEVTPLRLELQKLPGLANTTLSTPNPDTQASASPDPRPLREEEEARLLPRTHLQAELHQHGCWTVTEPAALTPGNATPPRTQEVTPLLLELQKLPELVHATLSTPNPDNQVTIKVVEDPQAEVSIDLLAEPSNPPPQDTLSWLPALWSFLWGDYKGEEKDRAPGEKGEEKEEDEDYPSEDIEGEDQEDKEEDEEEQALWFNGTTDNWDQGWLAPGDWVFKDSVSYDYEPQKEWSPWSPCSGNCSTGKQQRTRPCGYGCTATETRTCDLPSCPGTEDKDTLGLPSEEWKLLARNATDMHDQDVDSCEKWLNCKSDFLIKYLSQMLRDLPSCPCAYPLEAMDSPVSLQDEHQGRSFRWRDASGPRERLDIYQPTARFCLRSMLSGESSTLAAQHCCYDEDSRLLTRGKGAGMPNLISTDFSPKLHFKFDTTPWILCKGDWSRLHAVLPPNNGRACTDNPLEEEYLAQLQEAKEY [Q6H9L7]” was tested, and the “percentage of EdU-negative” value (MCF7; [8]) was 24.4 ± 0.93%, the “percentage of EdU-negative” value (MCF7; [9]) was 28.4 ± 1.3% and the “percentage of EdU-negative” value (hTERT-HMEC; [8]) was 5.26 ± 0.1%. For the same sequence, the “percentage of EdU-negative” value (hTERT-HMEC; [9]) was 5.07 ± 0.18%.

With “MRALVLLLSLFLLGGQAQHVSDWTYSEGALDEAHWPQHYPACGGQRQSPINLQRTKVRYNPSLKGLNMTGYETQAGEFPMVNNGHTVQISLPSTMRMTVADGTVYIAQQMHFHWGGASSEISGSEHTVDGIRHVIEIHIVHYNSKYKSYDIAQDAPDGLAVLAAFVEVKNYPENTYYSNFISHLANIKYPGQRTTLTGLDVQDMLPRNLQHYYTYHGSLTTPPCTENVHWFVLADFVKLSRTQVWKLENSLLDHRNKTIHNDYRRTQPLNHRVVESNFPNQEYTLGSEFQFYLHKIEEILDYLRRALN” the “percentage of EdU-negative” value (MCF7; [10]) was 24.6 ± 1.3%, the “percentage of EdU-negative” value (MCF7; [11]) was 23.7 ± 0.28% and the “percentage of EdU-negative” value (hTERT-HMEC; [10]) was 5.04 ± 0.54%. For the same sequence, the “percentage of EdU-negative” value (hTERT-HMEC; [11]) was 4.6 ± 0.89%.

With “MRAPGMRSRPAGPALLLLLLFLGAAESVRRAQPPRRYTPDWPSLDSRPLPAWFDEAKFGVFIHWGVFSVPAWGSEWFWWHWQGEGRPQYQRFMRDNYPPGFSYADFGPQFTARFFHPEEWADLFQAAGAKYVVLTTKHHEGFTNWPSPVSWNWNSKDVGPHRDLVGELGTALRKRNIRYGLYHSLLEWFHPLYLLDKKNGFKTQHFVSAKTMPELYDLVNSYKPDLIWSDGEWECPDTYWNSTNFLSWLYNDSPVKDEVVVNDRWGQNCSCHHGGYYNCEDKFKPQSLPDHKWEMCTSIDKFSWGYRRDMALSDVTEESEIISELVQTVSLGGNYLLNIGPTKDGLIVPIFQERLLAVGKWLSINGEAIYASKPWRVQWEKNTTSVWYTSKGSAVYAIFLHWPENGVLNLESPITTSTTKITMLGIQGDLKWSTDPDKGLFISLPQLPPSAVPAEFAWTIKLTGVK” the “percentage of EdU-negative” value (MCF7; [10]) was 23.7 ± 2%, the “percentage of EdU-negative” value (MCF7; [11]) was 27.8 ± 1.4% and the “percentage of EdU-negative” value (hTERT-HMEC; [10]) was 5.35 ± 1.3%. The “percentage of EdU-negative” value (hTERT-HMEC; [11]) was 6.003 ± 0.042%.

For “MRAPHLHLSAASGARALAKLLPLLMAQLWAAEAALLPQNDTRLDPEAYGSPCARGSQPWQVSLFNGLSFHCAGVLVDQSWVLTAAHCGNKPLWARVGDDHLLLLQGEQLRRTTRSVVHPKYHQGSGPILPRRTDEHDLMLLKLARPVVLGPRVRALQLPYRCAQPGDQCQVAGWGTTAARRVKYNKGLTCSSITILSPKECEVFYPGVVTNNMICAGLDRGQDPCQSDSGGPLVCDETLQGILSWGVYPCGSAQHPAVYTQICKYMSWINKVIRSN”, the “percentage of EdU-negative” value (MCF7; [12]) was 26.7 ± 0.38%, the “percentage of EdU-negative” value (MCF7; protein concentration 0.225 µM) was 26.9 ± 1.7% and the “percentage of EdU-negative” value (hTERT-HMEC; [12]) was 3.89 ± 0.14%. The “percentage of EdU-negative” value (hTERT-HMEC; protein concentration 0.225 µM) was 6.32 ± 0.7%.
